The EC50 is the concentration giving half of the maximal effect.

Positions count from the first letter of the chain named.

What all share (experiment): ELISA on recombinant NP
Background: An ELISA detects its analyte on a solid surface through an enzyme-linked reagent.

Test [1] concerns the target NPA5 (influenza A virus A/Anhui/1/2005 …, UniProt Q6DPE5 1-489).
The target in test [2] is NPA2 (influenza A virus A/WSN/1933(H1N1), UniProt A4U6V6 1-489).
Test [3] has as its target T1, NPB1 (influenza B virus B/Houston/B720/2004, UniProt O36433 1-548).
T1 chain: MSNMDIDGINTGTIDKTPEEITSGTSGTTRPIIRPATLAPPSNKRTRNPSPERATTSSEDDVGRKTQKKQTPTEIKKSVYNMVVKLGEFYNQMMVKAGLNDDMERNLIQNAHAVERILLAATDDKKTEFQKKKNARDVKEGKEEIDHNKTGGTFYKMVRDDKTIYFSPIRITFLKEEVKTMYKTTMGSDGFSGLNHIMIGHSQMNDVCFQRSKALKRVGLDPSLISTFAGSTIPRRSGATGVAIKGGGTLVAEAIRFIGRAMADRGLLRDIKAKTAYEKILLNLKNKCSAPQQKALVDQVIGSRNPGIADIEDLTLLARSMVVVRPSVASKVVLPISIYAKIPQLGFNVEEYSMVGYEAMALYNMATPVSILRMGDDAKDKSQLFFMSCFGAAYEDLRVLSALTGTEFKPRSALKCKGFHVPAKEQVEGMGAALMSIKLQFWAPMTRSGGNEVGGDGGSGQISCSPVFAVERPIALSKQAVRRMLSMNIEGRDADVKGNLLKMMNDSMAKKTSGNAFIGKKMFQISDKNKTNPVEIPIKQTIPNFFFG

In test [4] the target is T2, NPA4 (influenza A virus …, UniProt A8C8J8 1-489).
Test [5] addresses T3, NPA1 (influenza A virus A/Taiwan/1/72 (H3N2), UniProt P16982 1-489).
T3 chain: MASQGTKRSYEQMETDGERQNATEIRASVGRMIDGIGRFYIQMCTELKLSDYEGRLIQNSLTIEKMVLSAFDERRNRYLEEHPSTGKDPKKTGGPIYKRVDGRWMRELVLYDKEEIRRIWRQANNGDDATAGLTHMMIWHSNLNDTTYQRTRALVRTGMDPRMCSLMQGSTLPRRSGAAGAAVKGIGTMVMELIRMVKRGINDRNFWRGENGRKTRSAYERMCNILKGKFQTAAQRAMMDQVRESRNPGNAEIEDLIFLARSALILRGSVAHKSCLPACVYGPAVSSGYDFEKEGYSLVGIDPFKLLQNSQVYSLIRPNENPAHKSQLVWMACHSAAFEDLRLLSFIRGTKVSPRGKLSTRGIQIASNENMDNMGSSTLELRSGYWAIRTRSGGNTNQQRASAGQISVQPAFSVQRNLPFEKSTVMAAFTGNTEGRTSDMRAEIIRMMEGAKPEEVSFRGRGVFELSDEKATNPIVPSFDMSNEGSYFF

In test [6] the target is T2, NPA4. The source holds these as a separate data set.

B1: NP11 (antibody, V domains shown)
VH: EVQLVESGGGLVQPGGSLRLSCAASGFTIDSYGIHWVRQAPGKGLEWVAWIGPSGGSTFYADSVKGRFTISADTSKNTAYLQMNSLRAEDTAVYYCARGYFWFFDYWGQGTLVTVSS
VL: DIQMTQSPSSLSASVGDRVTITCRASQDVSSWVAWYQQKPGKAPKLLISWSGYLYSGVPSRFSGSGSGTDFTLTISSLQPEDFATYYCQQGFNYPLTFGQGTKVEIKR
As for B1, the results for the concentration for a half-maximal effect (EC50) in test [1] and in test [2] were 0.06 nM and 0.27 nM, respectively.

B2: NP22 (antibody, V domains shown)
VH: EVQLVESGGGLVQPGGSLRLSCAASGFTISDWSIHWVRQAPGKGLEWVAGIWPYWGSTSYADSVKGRFTISADTSKNTAYLQMNSLRAEDTAVYYCARGFYSWFDYWGQGTLVTVSS
VL: B1 VL with S30F, W50S, S51A, G52S, Y53S, G91S, F92W, N93D, L96I
As for B2, the EC50 in test [3] was determined as 0.27 nM.

B3: NP25 (antibody, V domains shown)
VH: EVQLVESGGGLVQPGGSLRLSCAASGFTIGGGFIHWVRQAPGKGLEWVASIWPYWGFTYYADSVKGRFTISADTSKNTAYLQMNSLRAEDTAVYYCARGSYGYSDYWGQGTLVTVSS
VL: B1 VL with S26G, W32G, S51T, G52S, Y53F, G91Y, F92Y, N93D, L96I
As for B3, in test [3], the EC50 came out at 0.1 nM.

B4: NP13 (antibody, V domains shown)
VH: EVQLVESGGGLVQPGGSLRLSCAASGFTINNYGIHWVRQAPGKGLEWVASIGPYGGSTYYADSVKGRFTISADTSKNTAYLQMNSLRAEDTAVYYCARFGYFNWLDMDYWGQGTLVTVSS
VL: B1 VL with S30G, S31Y, W50S, S51A, G52S, Y53G, F92W, N93D, Y94W, L96I
As to B4, the EC50 in test [4] turned out to be 0.07 nM; in test [1], 0.09 nM.

B5: NP24 (antibody, V domains shown)
VH: B2 VH with S30D, S33Y, W52G, W55G, S57F, S59Y, F100Y, S102G, W103S
VL: DIQMTQSPSSLSASVGDRVTITCRASQDVGSSVAWYQQKPGKAPKLLIFYTSSLYSGVPSRFSGSGSGTDFTLTISSLQPEDFATYYCQQGWDSPVTFGQGTKVEIKR
In the case of B5, the EC50 in test [3] is 0.05 nM.

B6: NP2 (antibody, V domains shown)
VH: EVQLVESGGGLVQPGGSLRLSCAASGFTIGGGGIHWVRQAPGKGLEWVAGIWPYWGYTFYADSVKGRFTISADTSKNTAYLQMNSLRAEDTAVYYCARFWHGNLDVMDYWGQGTLVTVSS
VL: DIQMTQSPSSLSASVGDRVTITCRASQDVYGYVAWYQQKPGKAPKLLIYGAAGLYSGVPSRFSGSGSGTDFTLTISSLQPEDFATYYCQQYSNFPLTFGQGTKVEIKR
For B6, the EC50 in test [3] stood at 1.37 nM.

B7: NP12 (antibody, V domains shown)
VH: B3 VH with G30D, G31N, F33Y, Y54S, F57S, S100F, G102Y, S104G
VL: B6 VL with Y30G, Y32N, Y49S, G50S, A51T, S92Y, N93D
As for B7, in test [1], the EC50 was 9.07 nM.

B8: NP20 (antibody, V domains shown)
VH: EVQLVESGGGLVQPGGSLRLSCAASGFTINGYSIHWVRQAPGKGLEWVASIGPYGGFTYYADSVKGRFTISADTSKNTAYLQMNSLRAEDTAVYYCAGFGFYYWGQGTLVTVSS
VL: B6 VL with Y30G, G31Y, Y32G, Y49S, A52S, N93S
For the molecule B8, in test [3], the EC50 amounted to 0.04 nM.

B9: NP10 (antibody, V domains shown)
VH: EVQLVESGGGLVQPGGSLRLSCAASGFTIDNGSIHWVRQAPGKGLEWVAWIWPFGGSTSYADSVKGRFTISADTSKNTAYLQMNSLRAEDTAVYYCARSWSSGYDYWGQGTLVTVSS
VL: B1 VL with S31W, W32S, W50G, G52T, Y53W, G91Y, F92S, Y94S, L96I
On to B9, for which the results for the half-maximal effective concentration (EC50) in test [1] and in test [5] were 0.28 nM and 0.36 nM, respectively. Besides, the binding result in test [6] is given as “no binding”.

B10: NP23 (antibody, V domains shown)
VH: B8 VH with N30S, G31N, S33F, Y54F, Y59S, F99Y, Y102H
VL: B6 VL with Y30D, G31D, Y32G, Y49S, A52R, G53W, S92Y
For B10, the 50% effective concentration (EC50) in test [3] was 0.06 nM.

B11: NP8 (antibody, V domains shown)
VH: EVQLVESGGGLVQPGGSLRLSCAASGFTINSFGIHWVRQAPGKGLEWVAGIGPFGGSTFYADSVKGRFTISADTSKNTAYLQMNSLRAEDTAVYYCARGFYWFDYWGQGTLVTVSS
VL: B1 VL with S30D, S31D, W32S, S49Y, S51T, G52R, F92Y
Take B11: in test [2], the 50% effective concentration (EC50) was found to be 2.14 nM.

B12: NP4 (antibody, V domains shown)
VH: EVQLVESGGGLVQPGGSLRLSCAASGFTISNSSIHWVRQAPGKGLEWVAGIGPSGGYTFYADSVKGRFTISADTSKNTAYLQMNSLRAEDTAVYYCARFHSHNSYYSYSHYGYMDYWGQGTLVTVSS
VL: B1 VL with S30G, S31W, W32G, W50G, S51P, G52S, Y53S, G91Y, L96I
In the case of B12, the results for the EC50 in test [1] and in test [5] were 0.37 nM and 0.19 nM, respectively.

B13: NP3 (antibody, V domains shown)
VH: EVQLVESGGGLVQPGGSLRLSCAASGFTISNYGIHWVRQAPGKGLEWVAGIWPFGGFTSYADSVKGRFTISADTSKNTAYLQMNSLRAEDTAVYYCARFHWNDHGYMDYWGQGTLVTVSS
VL: B6 VL with Y30G, G31W, G50S, A51T, A52T, S92Y, F94Y, L96I
On to B13, for which the EC50 in test [5] worked out at 0.09 nM.

B14: NP19 (antibody, V domains shown)
VH: B13 VH with N31S, Y32W, W52G, G55W, F57Y, H100G, W101V, N102D, D103N, H104Y
VL: B1 VL with S31G, G52T, Y53G, G91Y, Y94F, L96V
B14: in test [5], the EC50 came to 0.11 nM.

B15: NP15 (antibody, V domains shown)
VH: EVQLVESGGGLVQPGGSLRLSCAASGFTISNWYIHWVRQAPGKGLEWVAGIGPYGGSTYYADSVKGRFTISADTSKNTAYLQMNSLRAEDTAVYYCARFHWDHLHGMDYWGQGTLVTVSS
VL: B1 VL with S30D, S31N, W32N, W50Y, G52T, Y53G, G91Y, F92W, L96I
With B15, in test [4], the concentration giving a half-maximal response (EC50) was 0.35 nM.

B16: NP5 (antibody, V domains shown)
VH: EVQLVESGGGLVQPGGSLRLSCAASGFTISNGSIHWVRQAPGKGLEWVAGIWPSGGSTSYADSVKGRFTISADTINNSAYLQMNSLRAEDTAVYYCARWNYWGQGTLVTVSS
VL: B1 VL with S30G, S31W, W32S, S49Y, W50G, G52R, Y53W, F92Y, Y94G
On to B16, for which the concentration giving a half-maximal response (EC50) in test [2] turned out to be 0.13 nM.

B17: NP14 (antibody, V domains shown)
VH: EVQLVESGGGLVQPGGSLRLSCAASGFTIDNGGIHWVRQAPGKGLEWVASIWPSWGSTSYADSVKGRFTISADTSKNTAYLQMNSLRAEDTAVYYCARFNFGVFGVMDYWGQGTLVTVSS
VL: B6 VL with Y30D, G31N, Y32D, A51P, A52R, N93S, F94W
For the molecule B17, the concentration for a half-maximal effect (EC50) in test [1] was found to be 1.7 nM; in test [2] it was 0.08 nM; in test [5], 0.19 nM.

B18: NP21 (antibody, V domains shown)
VH: B13 VH with S30N, N31G, F54Y, F57S, S59F, H100Y, W101N, D103H, H104G, Y106I
VL: B6 VL with G31F, A51S, A52R, G53W, L96V
With B18, the EC50 came to 28.6 nM in test [2] and 0.12 nM in test [5].

B19: NP7 (antibody, V domains shown)
VH: EVQLVESGGGLVQPGGSLRLSCAASGFTISNGGIHWVRQAPGKGLEWVAGIGPYGGFTSYADSVKGRFTISADTSKNTAYLQMNSLRAEDTAVYYCARFYSNYYGYHGVMDYWGQGTLVTVSS
VL: B1 VL with S30F, S31G, W50Y, G52A, Y53S, G91Y
Consider B19, for which, in test [2], the 50% effective concentration (EC50) amounted to 0.79 nM.

B20: NP9 (antibody, V domains shown)
VH: EVQLVESGGGLVQPGGSLRLSCAASGFTINNGWIHWVRQAPGKGLEWVAGIGPYWGFTSYADSVKGRFMISADTSKNTAYLQMNSLRAEDTAVYYCARFDSDHDHHYSYYYYYDNGYMDYWGQGTLVTVSS
VL: B6 VL with Y30W, G31F, Y32S, A51T, A52T, G53S, S92F, F94Y
Regarding B20, the EC50 in test [1] was found to be 1.12 nM.

The values are drawn from patent US20230212554A1 (published 2023).
